One experiment concerns the target bovine trypsin (bovine, UniProt P00760 24-246). Nature of the experiment: trypsin inhibition, BApNA substrate. As to the method:
The substrates N-succinyl-Ala-Ala-Pro-Phe-p-nitroaniline (AAPFpNA), Nα—Benzoyl-L-arginine-4-nitroaniline hydrochloride (BApNA) and N-succinyl-[…] (AAApNA) are used in competitive binding reaction to determine the inhibitory activities against α-chymotrypsin, bovine trypsin, and porcine pancreatic elastase, respectively. Experiments for α-chymotrypsin and bovine trypsin inhibition were measured in 20 mM CaCl₂, 50 mM Tris-HCl buffer (pH 7.8), and that for porcine elastase inhibition was measured in 50 mM Tris-HCl buffer (pH 8.0). The concentration of the peptide was measured using optical density (OD) at 280 nm. The Michaelis constant (Kₘ) of the enzyme hydrolysis substrate is calculated from the initial rate of substrate hydrolysis at 405 nm. The absorbance value of the substrate was measured at 405 nm after complete hydrolysis. All data were processed using nonlinear regression.
(1) Added a total 190 μL of reaction buffer (20 mM CaCl₂ and 50 mM Tris-HCl, pH 7.8) along with different concentrations of anti-trypsin peptides (BTs) into the pre-cooled 96-well plate, followed by preheating at 37° C., and spined down at 500 rpm for 5 min. Next added 10 μL of 1 μM trypsin, incubated at 37° C., and then spined down at 500 rpm for 10 min. Finally, added 5 μL of 50 mM BApNA, and mixed by centrifugation at 500 rpm for 1 min. […] The experiment was performed in triplicate. The blank control only contained the reaction buffer and the substrate as the minimum absorption value (Min OD_{405 nm}). The negative control only contained the reaction buffer, the enzyme and the substrate as the maximum absorption value (Max OD_{405 nm}). […] (2) In the reaction system of 205 μL, the final concentrations of trypsin and BApNA were 50 nM and 1.22 mM, respectively. [0456] (3) Data statistics

For experiment [1], the target named is T1, porcine pancreatic elastase (porcine, UniProt P00772 27-266).
T1 construct: substrate AAApNA
T1 sequence (P00772 27-266 limits assumed): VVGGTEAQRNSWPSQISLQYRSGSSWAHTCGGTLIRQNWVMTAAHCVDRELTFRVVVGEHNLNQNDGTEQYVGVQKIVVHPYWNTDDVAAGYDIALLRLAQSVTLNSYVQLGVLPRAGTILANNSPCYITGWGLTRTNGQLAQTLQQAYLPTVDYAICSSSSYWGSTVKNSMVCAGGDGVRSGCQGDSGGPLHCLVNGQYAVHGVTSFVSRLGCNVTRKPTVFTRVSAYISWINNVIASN
Nature of the experiment: elastase inhibition, Ki=IC50/(1+S/Km).

Experiment [2] deals with T1, porcine pancreatic elastase. Nature of the experiment: elastase inhibition, AAApNA substrate, OD405.

This note sets out measurements from patent publication US20230416329A1 (INSTITUTE OF MATERIA MEDICA CHINESE ACADEMY OF MEDICAL …, published 2023).

Bridge positions count the residues as written; N and C are the ends. Square brackets hold non-standard residues; d marks the D form. Ends that are not written are not given here. hCys = N[C@@H](CCS)C(=O)O; Nle = CCCC[C@H](N)C(=O)O

bovine trypsin, sequence (P00760 24-246): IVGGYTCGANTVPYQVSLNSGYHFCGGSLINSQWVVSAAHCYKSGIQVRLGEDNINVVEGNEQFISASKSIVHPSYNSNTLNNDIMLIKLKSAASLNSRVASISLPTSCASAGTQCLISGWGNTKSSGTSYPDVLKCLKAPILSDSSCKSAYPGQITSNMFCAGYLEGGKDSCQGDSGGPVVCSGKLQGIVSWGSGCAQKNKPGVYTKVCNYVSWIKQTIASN

By IC50 is commonly meant the concentration needed to halve the response being measured. Read a high IC50 as weaker potency. As a reminder, the Ki is the dissociation constant of the complex between target and ligand, obtained from inhibition or displacement. In the experiment with bovine trypsin, CGRATKSIPPIAC (disulfide 1-13 (inferred)) [BT13] displayed an IC50 of 31500 nM and a Ki of 6700 nM.
In the experiment with bovine trypsin, CGAKGTKSIPPICFPD (disulfide 1-13 (inferred)) [BT2] yielded an IC50 of 3030 nM and a Ki of 650 nM.
Taken in the same sequence, the figures for CGAKATKSIPPICFPD (disulfide 1-13 (inferred)) [BT3] were 680 nM and 140 nM.
Taken in the same sequence, the figures for CGRATKS[Nle]PPICF (disulfide 1-12 (inferred)) [BT28] were 290 nM and 60 nM.

B1: BT45 (peptide)
peptide: RCTKSIPPICF
modifications: disulfide 2-10 (inferred)
notes: also called truncated monocyclic SFTI-1 mutant
In the experiment with bovine trypsin, B1 returned an IC50 of 30 nM and a Ki of 6.4 nM.
For RCTKSIPPHCF (disulfide 2-10 (inferred)) [BT62], in that order: 70 nM and 10 nM.
In the experiment with bovine trypsin, [hCys]GRATKSIPPIAF[hCys] (disulfide 1-14) [BT29] showed an IC50 of 10600 nM and a Ki of 2260 nM.
Taken in the same sequence, the figures for [hCys]GRATKSIPPIAFG[hCys] (disulfide 1-15) [BT33] were 5570 nM and 1190 nM.
Taken in the same sequence, the figures for CWTKSIPPKPC (disulfide 1-11 (inferred)) [BT36] were 4650 nM and 990 nM.
For RCTKSLPPQCS (disulfide 2-10 (inferred)) [BT65], in that order: 620 nM and 130 nM.
In the experiment with bovine trypsin, RCTKSNPPQCQ (disulfide 2-10 (inferred)) [BT64] displayed an IC50 of 3430 nM and a Ki of 730 nM.
In the experiment with bovine trypsin, CGRATKSLPPACF (disulfide 1-12 (inferred)) [BT14] had an IC50 of 1650 nM and a Ki of 350 nM.
In the experiment with bovine trypsin, CGRATKSIPPIAFGC (disulfide 1-15 (inferred)) [BT32] had an IC50 of 1540 nM and a Ki of 330 nM.
In the experiment with bovine trypsin, CGRATKSIPPQCY (disulfide 1-12 (inferred)) [BT12] gave an IC50 of 8460 nM and a Ki of 1800 nM.
Taken in the same sequence, the figures for GTCTRSIPPICNPN (disulfide 3-11 (inferred)) [BT23] were 1820 nM and 390 nM.
Taken in the same sequence, the figures for RCTKSIPPQCH (disulfide 2-10 (inferred)) [BT63] were 90 nM and 20 nM.
Taken in the same sequence, the figures for CGRATKSIPPIAFC (disulfide 1-14 (inferred)) [BT11] were 2200 nM and 470 nM.
In the experiment with bovine trypsin, RCTRSIPPHCW (disulfide 2-10 (inferred)) [BT61] registered a half-inhibitory concentration (IC50) of 890 nM and a Ki of 190 nM.
Taken in the same sequence, the figures for ACTKSNPPQCR (disulfide 2-10 (inferred)) [BT68] were 2430 nM and 520 nM.
For the molecule CIRATKSIPPICF (disulfide 1-12 (inferred)) [BT73], in the experiment with bovine trypsin, the 50% inhibitory concentration (IC50) came to 120 nM and the Ki stood at 30 nM.
In the experiment with bovine trypsin, CRRATKSIPPICF (disulfide 1-12 (inferred)) [BT76] yielded an IC50 of 50 nM and a Ki of 10 nM.
For CQRATKSIPPICF (disulfide 1-12 (inferred)) [BT79], in that order: 50 nM and 10 nM.
For CKRATKSIPPICF (disulfide 1-12 (inferred)) [BT77], in that order: 40 nM and 8.5 nM.
For CERATKSIPPICF (disulfide 1-12 (inferred)) [BT78], in that order: 30 nM and 6.4 nM.
On to CSRATKSIPPICF (disulfide 1-12 (inferred)) [BT75], for which, in the experiment with bovine trypsin, the IC50 was 40 nM and the affinity corresponds to a Ki of 8.5 nM.
On to LCTASIPPICQ (disulfide 2-10 (inferred), disulfide bond between the two Cys) [EC12], for which the affinity in experiment [1], expressed as Ki, was 110 nM. The same molecule registered an IC50 in experiment [2] of 400 nM.
Taken in the same sequence, the figures for YCTASIPPQCY (disulfide 2-10 (inferred), disulfide bond between the two Cys) [EC14] were 2040 nM and 7140 nM.
Turning to VCTASIPPICQ (disulfide 2-10 (inferred), disulfide bond between the two Cys) [EC22], the Ki in experiment [1] amounted to 110 nM. Besides, the IC50 in experiment [2] turned out to be 400 nM.
LCTASIPPICR (disulfide 2-10 (inferred), disulfide bond between the two Cys) [EC21] yielded a Ki in experiment [1] of 4370 nM. Further, in experiment [2], half-maximal inhibition (IC50) required 15300 nM.
Taken in the same sequence, the figures for LCTLSIPPQCY (disulfide 2-10 (inferred), disulfide bond between the two Cys) [EC2] were 910 nM and 3190 nM.
Taken in the same sequence, the figures for ICTASIPPQCQ (disulfide 2-10 (inferred), disulfide bond between the two Cys) [EC19] were 330 nM and 1140 nM.
Taken in the same sequence, the figures for LCTASIPPQCQ (disulfide 2-10 (inferred), disulfide bond between the two Cys) [EC18] were 270 nM and 960 nM.
Turning to LCTASIPPQCY (disulfide 2-10 (inferred), disulfide bond between the two Cys) [EC1], the Ki in experiment [1] worked out at 330 nM. Inhibition in experiment [2] was half-maximal at 1170 nM (IC50).
